# Assay results reported in publication PMC10774353, “Multi-scale structures of the mammalian radial spoke and divergence of axonemal complexes in ependymal cilia” (Nature Communications, 2024).
# T1: Rsph4a (mouse, UniProt Q8BYM7 1-716)
# T1 construct: Rsph4a (radial spoke head protein 4 homolog A), mouse, NM_001162957; Two copies stand in each RS head
# T1 sequence: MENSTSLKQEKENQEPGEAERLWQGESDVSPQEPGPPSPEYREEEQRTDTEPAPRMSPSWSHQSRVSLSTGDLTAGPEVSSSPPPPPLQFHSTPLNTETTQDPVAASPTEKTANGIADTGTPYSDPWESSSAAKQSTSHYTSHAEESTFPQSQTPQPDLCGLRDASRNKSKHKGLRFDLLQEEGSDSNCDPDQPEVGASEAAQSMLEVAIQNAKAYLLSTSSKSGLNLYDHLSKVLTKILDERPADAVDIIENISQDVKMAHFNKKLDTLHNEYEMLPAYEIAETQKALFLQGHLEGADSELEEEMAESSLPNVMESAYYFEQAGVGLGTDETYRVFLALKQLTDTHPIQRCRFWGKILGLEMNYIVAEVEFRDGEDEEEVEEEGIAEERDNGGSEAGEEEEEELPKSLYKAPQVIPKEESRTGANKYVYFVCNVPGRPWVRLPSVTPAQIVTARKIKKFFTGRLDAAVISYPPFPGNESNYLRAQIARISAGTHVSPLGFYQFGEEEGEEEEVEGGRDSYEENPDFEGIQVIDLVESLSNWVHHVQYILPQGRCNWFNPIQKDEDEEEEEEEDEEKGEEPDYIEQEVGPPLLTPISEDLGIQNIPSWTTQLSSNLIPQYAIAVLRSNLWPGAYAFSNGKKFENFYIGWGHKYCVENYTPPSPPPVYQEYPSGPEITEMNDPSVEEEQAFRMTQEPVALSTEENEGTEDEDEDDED
# B1: FLAG-tagged Rsph16 (natural protein, mouse, UniProt Q80Y75 1-316, looked up)
# chain: MGLDYYAVLQVTRNSEDAQIKKAYRKLALKNHPLKSSEPGAPEIFKQIAEAYDVLSDPVKRGIYDKFGEEGLKGGIPLEFGSQTPWTTGYVFHGNPDKVFHEFFGGDNPFSEFFDAEGNDIDLNFGGLWGRGVQKQDPPIERDLYLSLEDLFFGCTKKIKISRRVLNEDRYSSTIKDKILTIDVRPGWRQGTRITFEKEGDQGPNIIPADIIFIVKEKLHPRFRREHDNLFFVYPIPLGKALTCCTVEVKTLDDRLLNIPINDIVHPKYFKIVPGEGMPLPENPSKKGDLFIFFDIQFPTRLTPQKKQMLRQALLT
# notes: Rsph16 (homologue of HSP40, DnaJ family), mouse, NM_153527; full-length gene amplified from cDNAs of mouse ependymal cells, in pcDNA3.4; Stands as a homodimer (the arch bridge Rsph16-Rsph16') in both the head-neck monomer and the head-neck dimer; not shown: 3xFLAG, N-terminal, kept
# B2: Rsph3b (natural protein, mouse)
# chain: MTDRNPRTAEASGLYTYSSRPRAVACQRRRHRDSILQPVEEPMSYGNIMYDRRVIRGNTYALPTGQVPGQPDPLELQRQQQARRRALARKRAQEQLKPRTPEPVEGRKHVDIQTELYLEEIADRIVEVDMECQTDAFLDRPPTPLFIPAKTGKDVATQILGGELFDFDLEVKPMLEVLVGKTIEQSLLEVMEEEELANLRARQYAYEEIRNVELAEVQRLEEQERRHREEKERRKKQQWEIVHKRNETLQKISALIFARQYLANLLPSVFDKLRNSGFFYDPIERDIEVGFLPWLMNEVEKSMEHSMVGRTVLDMLIRDVVERRINDYEHKEAMPPGQKTNVINGPNTVTDPSVTTLHTQKPVLDRVSSQPAPSQERKPVEEGGHLMAE
# notes: Rsph3b (radial spoke head protein 3 homolog B), mouse, NM_001083945; non-tagged, in pcDNA3.4; Non-tagged
# Columns and labels:
# Assay in all cases: cryo-EM structure; RS head-neck complex co-expressed in HEK293F, purified by Strep-Tactin then anti-FLAG beads, cross-linked by GraFix (0-0.1% glutaraldehyde, 10-40% glycerol, 4 °C); monomer map 3.28 Å, dimer map 3.57 Å
# [1] = target: T1, Rsph4a; details: both partners purified
# [2] = target: B1; details: both partners purified
# [3] = target: B2; details: both partners purified
# [4] = target: the molecule itself
binding result [1],binding result [2],binding result [3],Binder,stoichiometry N [4]
binds,binds,–,"Rsph9 (natural protein, mouse, Rsph9 (radial spoke head protein 9 homolog), mouse, NM_029338; non-tagged, in pcDNA3.4; Two copies stand in each RS head; Non-tagged) MDADSLLLSLELASGSGQGLSPDRRASLLTSLMLVKRDYRFARVLFWGRILGLVADYYIAQGLSEDQLAPRKTLYSLNCTEWSLLPPATEEMAMQISVVSGRFMGDPSHEYEHTELQKVNEGEKVFDEEVVVQIKEETRLVSIIDQIDKAVAIIPRGALFKTPFGVTHVNRTFEGLPLSEVRKLSSYFHFREAIDLKNKTLLEKSDLEPSLDFLDSLEYDIPRGSWSIQMERGNALVVLRSLLWPGLTFYHAPRTKNYGYIYVGTGEKNMDLPFML",–
–,binds,binds,"Rsph23 (natural protein, mouse, Rsph23, mouse, NM_080637) MEVSMPLPQIYVEKTLALIKPDVVDKEEEIQDIILGSGFTIIQRRKLHLSPEHCSNFYVEQYGKMFFPNLTAYMSSGPLVAMILARHKAISYWKELMGPSNSLVAKETHPDSLRAIYGTDELRNALHGSNDFAASEREIRFMFPAVIIEPIPIGQAAKDYINLYVAPTLLQGLTELCKEKPPDPYLWLADWLMKNNPNKPKLCHFPVTEEP",–
–,–,–,B1,2
binds,–,–,B2,–
